Source: paper PMC8209278 (iScience, 2021)

Experiments:
[1] = target: Purified recombinant viral NP protein (influenza virus A/Puerto Rico/8/34 …, UniProt P03466 1-498); test: pull-down
[2] = target: Purified recombinant viral PB2 protein (influenza virus A/Puerto Rico/8/34 …, UniProt P03428 1-759); test: pull-down

Chain of Purified recombinant viral NP protein (P03466 whole entry): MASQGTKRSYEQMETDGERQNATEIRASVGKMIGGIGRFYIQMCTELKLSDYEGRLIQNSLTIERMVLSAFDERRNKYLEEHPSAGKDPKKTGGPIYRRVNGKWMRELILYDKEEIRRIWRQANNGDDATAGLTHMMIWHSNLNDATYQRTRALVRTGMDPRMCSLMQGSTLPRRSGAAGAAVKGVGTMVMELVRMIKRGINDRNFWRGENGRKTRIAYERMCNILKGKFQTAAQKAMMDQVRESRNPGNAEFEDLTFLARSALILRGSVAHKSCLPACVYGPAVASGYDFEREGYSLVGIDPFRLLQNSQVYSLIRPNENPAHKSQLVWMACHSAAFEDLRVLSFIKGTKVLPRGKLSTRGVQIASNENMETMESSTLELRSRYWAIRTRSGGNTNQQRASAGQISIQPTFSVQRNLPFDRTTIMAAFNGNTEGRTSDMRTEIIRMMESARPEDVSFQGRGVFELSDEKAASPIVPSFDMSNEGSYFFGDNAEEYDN

B1: GST-fused full length Suv4-20h2 (enzyme)
chain: not shown
binding result [1]: binds | binding result [2]: binds
